Measurements from US20120322150A1 (CARNEGIE INSTITUTION OF WASHINGTON, published 2012).

What was measured:
Assay in all cases: BiFC in tobacco leaf epidermal cells
[1] = target: T1, BSL1 (BiFC construct tested with BSK1-cYFP) (Arabidopsis, UniProt Q8L7U5 1-881)
T1 sequence: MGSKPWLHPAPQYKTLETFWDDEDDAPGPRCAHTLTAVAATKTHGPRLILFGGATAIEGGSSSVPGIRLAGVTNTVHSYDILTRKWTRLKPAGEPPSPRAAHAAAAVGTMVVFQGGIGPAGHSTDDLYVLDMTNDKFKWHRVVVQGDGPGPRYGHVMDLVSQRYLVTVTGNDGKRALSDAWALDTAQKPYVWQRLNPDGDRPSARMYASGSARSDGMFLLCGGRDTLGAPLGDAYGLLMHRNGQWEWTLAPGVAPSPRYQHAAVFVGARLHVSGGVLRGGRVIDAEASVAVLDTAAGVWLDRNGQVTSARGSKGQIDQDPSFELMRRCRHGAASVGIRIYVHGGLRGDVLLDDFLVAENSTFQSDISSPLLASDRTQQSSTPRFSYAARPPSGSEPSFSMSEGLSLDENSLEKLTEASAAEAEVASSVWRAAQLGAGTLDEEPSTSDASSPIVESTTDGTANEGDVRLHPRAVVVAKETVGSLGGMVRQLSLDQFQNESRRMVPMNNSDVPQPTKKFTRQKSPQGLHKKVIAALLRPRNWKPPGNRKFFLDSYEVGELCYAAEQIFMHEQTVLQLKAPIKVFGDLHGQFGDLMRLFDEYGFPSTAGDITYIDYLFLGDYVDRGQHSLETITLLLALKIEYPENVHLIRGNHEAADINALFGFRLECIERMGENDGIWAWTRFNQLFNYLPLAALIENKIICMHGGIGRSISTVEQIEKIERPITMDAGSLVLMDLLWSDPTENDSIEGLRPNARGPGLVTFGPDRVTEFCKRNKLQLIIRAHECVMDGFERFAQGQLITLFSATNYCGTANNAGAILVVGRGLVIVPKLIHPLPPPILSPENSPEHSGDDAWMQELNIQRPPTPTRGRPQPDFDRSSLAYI
Excerpt: (§1) The blot was probed sequentially with MBP-BSU1 and anti-MBP antibody (upper) and then stained with Ponceau S (lower). […] Tobacco leaf epidermal cells were transformed with indicated constructs. At5g49760 is a receptor kinase unrelated to BR signaling used here as a negative control. Bright spots in nYFP+BSK 1-cYFP and At5g49760-nYFP+BSK1-cYFP are chloroplast auto-fluorescence. […] Total protein extracts obtained from Arabidopsis plants (F1) expressing BSU1 -YFP or co-expressing BSU1-YFP and BSK1-myc were immunoprecipitated with anti-myc, and the immunoblot was probed with anti-GFP and anti-myc antibody. […] GST-BSK1 or GST-BSK1 S230A was incubated with GST-BRI1-K or GST for 2 hrs. […] In the presence of BR (+BR), BR binding to the extracellular domain of BRI1 induces dissociation of BKI1 and association and inter-activation between BRI1 and BAKI. Activated BRI1 then phosphorylates BSK1, which in turn dissociates from the receptor complex and interacts with and presumably activate BSU1. BSU1 inactivates BIN2 by dephosphorylating its pTyr200, allowing accumulation of unphosphorylated BZR1/2, likely with help of a phosphatase that is yet to be identified. Unphosphorylated BZR1/2 accumulate in the nucleus and alter the expression of BR-target genes, leading to cellular and developmental responses. While individual representative protein is shown for each function, in Arabidopsis most of these components have about 2 to 5 homologous proteins (paralogs) that can contribute to the same or similar signaling function.
(§2) Transformation by Agrobacterium infiltration, observations of subcellular localization and BiFC signal in tobacco or Arabidopsis were performed as described previously 5.

[2] = target: T2, At5g49760-nYFP (UniProt Q8GZ99 24-953)
T2 construct: BiFC negative control; not shown: N-terminal half of YFP (nYFP)
T2 sequence (looked up): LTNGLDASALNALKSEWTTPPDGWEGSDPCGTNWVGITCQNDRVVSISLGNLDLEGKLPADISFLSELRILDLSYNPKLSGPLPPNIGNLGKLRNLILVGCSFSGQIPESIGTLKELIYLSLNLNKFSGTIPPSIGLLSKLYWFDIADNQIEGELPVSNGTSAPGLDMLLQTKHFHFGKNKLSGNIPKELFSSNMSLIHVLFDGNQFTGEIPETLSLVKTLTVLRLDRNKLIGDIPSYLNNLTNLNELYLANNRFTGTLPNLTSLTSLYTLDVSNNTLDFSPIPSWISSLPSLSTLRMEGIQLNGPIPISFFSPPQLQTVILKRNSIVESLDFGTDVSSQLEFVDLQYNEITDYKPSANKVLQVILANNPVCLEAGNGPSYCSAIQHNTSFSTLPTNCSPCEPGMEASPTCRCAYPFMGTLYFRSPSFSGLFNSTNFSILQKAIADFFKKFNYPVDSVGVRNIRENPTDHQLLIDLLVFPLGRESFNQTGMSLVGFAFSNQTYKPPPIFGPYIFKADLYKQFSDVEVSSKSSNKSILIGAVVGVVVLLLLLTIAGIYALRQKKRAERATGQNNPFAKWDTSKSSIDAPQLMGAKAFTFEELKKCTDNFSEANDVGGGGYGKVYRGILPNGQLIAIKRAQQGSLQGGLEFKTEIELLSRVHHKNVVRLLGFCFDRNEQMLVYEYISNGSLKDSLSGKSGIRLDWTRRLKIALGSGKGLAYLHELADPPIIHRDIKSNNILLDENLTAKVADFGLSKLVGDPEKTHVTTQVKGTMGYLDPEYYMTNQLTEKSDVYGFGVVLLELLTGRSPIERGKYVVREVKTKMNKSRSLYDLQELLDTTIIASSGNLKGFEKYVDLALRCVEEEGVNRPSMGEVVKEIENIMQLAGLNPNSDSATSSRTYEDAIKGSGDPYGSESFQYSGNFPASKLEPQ
Excerpt: as §1, §2

[3] = target: BSU1 (BiFC construct tested with BSK1-cYFP) (Arabidopsis, UniProt Q9LR78 1-793)
Excerpt: as §1, §2

BSU1 (BiFC construct tested with BSK1-cYFP), sequence (Q9LR78 whole entry): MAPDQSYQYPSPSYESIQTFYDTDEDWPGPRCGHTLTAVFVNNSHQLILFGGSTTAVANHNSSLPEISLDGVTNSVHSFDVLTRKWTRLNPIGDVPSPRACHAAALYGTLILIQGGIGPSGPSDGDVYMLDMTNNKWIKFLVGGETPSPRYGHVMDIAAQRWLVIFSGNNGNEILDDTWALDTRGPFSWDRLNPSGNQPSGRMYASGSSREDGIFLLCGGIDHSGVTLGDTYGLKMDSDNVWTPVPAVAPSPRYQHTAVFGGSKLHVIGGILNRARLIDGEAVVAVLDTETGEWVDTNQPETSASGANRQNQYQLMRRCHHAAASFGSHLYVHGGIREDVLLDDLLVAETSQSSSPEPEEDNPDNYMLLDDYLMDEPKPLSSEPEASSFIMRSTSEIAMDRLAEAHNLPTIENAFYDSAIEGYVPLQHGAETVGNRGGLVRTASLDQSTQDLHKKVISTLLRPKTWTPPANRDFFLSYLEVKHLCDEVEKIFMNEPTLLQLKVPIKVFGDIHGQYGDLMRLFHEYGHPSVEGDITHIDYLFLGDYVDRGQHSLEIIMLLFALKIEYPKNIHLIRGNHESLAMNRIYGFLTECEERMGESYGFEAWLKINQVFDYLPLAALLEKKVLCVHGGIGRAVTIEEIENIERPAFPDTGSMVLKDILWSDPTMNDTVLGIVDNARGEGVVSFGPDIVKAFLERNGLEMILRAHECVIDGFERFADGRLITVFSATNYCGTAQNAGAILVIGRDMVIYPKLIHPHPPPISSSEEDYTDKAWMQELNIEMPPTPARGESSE

binding result [1]: binds | binding result [2]: no binding | binding result [3]: binds
B1: BSK1-cYFP (enzyme, Arabidopsis, UniProt Q944A7 2-512, looked up)
chain: GCCQSLFSGDNPLGKDGVQPQPLSQNNHGGATTADNGGSGGASGVGGGGGGGGIPSFSEFSFADLKAATNNFSSDNIVSESGEKAPNLVYKGRLQNRRWIAVKKFTKMAWPEPKQFAEEAWGVGKLRHNRLANLIGYCCDGDERLLVAEFMPNDTLAKHLFHWENQTIEWAMRLRVGYYIAEALDYCSTEGRPLYHDLNAYRVLFDEDGDPRLSCFGLMKNSRDGKSYSTNLAYTPPEYLRNGRVTPESVTYSFGTVLLDLLSGKHIPPSHALDMIRGKNIILLMDSHLEGKFSTEEATVVVELASQCLQYEPRERPNTKDLVATLAPLQTKSDVPSYVMLGIKKQEEAPSTPQRPLSPLGEACSRMDLTAIHQILVMTHYRDDEGTNELSFQEWTQQMKDMLDARKRGDQSFREKDFKTAIDCYSQFIDVGTMVSPTVFGRRSLCYLLCDQPDAALRDAMQAQCVYPDWPTAFYMQSVALAKLNMNTDAADMLNEAAQLEEKRQRGGRGS
notes: BiFC construct in tobacco leaf epidermal cells; not shown: C-terminal half of YFP (cYFP)
